The record followed here is patent US20220339270A1 (published 2022).

Assay [1] concerns the target T1, wild-type tau (441 amino acids; tau441; NP_005901.2) (human, UniProt P10636 1-758).
T1 construct: Unphosphorylated recombinant tau441 used in the wild-type tau ELISA; also called wt tau441; wtTau
The experiment in a line: wild-type tau ELISA, ExpiCHO supernatant. On the technique in general: An ELISA detects its analyte on a solid surface through an enzyme-linked reagent.

For assay [2], the target named is T1, wild-type tau (441 amino acids; tau441; …). Nature of the assay: wtTau ELISA.
The target in assay [3] is T2, extracellular tau in the form of paired helical filaments (ePHF tau) (UniProt P10636-8 1-441, limits assumed).
T2 construct: Aggregated, hyperphosphorylated tau preparation; not a single defined polypeptide
T2 sequence (P10636 other isoform, or with tags, fused parts or gaps limits assumed): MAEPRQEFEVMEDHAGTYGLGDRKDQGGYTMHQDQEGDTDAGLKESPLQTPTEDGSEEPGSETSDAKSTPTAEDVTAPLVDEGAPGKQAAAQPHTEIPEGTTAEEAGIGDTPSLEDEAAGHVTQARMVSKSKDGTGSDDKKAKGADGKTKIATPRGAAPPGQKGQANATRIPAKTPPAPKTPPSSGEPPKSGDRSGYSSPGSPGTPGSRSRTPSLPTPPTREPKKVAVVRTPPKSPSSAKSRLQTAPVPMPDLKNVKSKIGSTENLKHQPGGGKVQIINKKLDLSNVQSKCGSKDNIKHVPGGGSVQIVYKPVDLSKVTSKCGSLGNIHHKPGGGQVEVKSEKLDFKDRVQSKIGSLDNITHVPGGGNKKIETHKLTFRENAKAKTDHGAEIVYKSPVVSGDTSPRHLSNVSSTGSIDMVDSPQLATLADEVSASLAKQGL
Nature of the assay: ePHF tau ELISA, ePHF coated; antibody at 0.7 ng/ml; anti-mouse-HRP.

Assay [4] concerns the target T2, extracellular tau in the form of paired …. The experiment in a line: ePHF tau ELISA, ePHF coated; antibody at 2.1 ng/ml; anti-mouse-HRP.
Assay [5] has the same target. The experiment in a line: ePHF tau ELISA, ePHF coated; antibody at 6.2 ng/ml; anti-mouse-HRP.
For assay [6] the target is unchanged. The experiment in a line: ePHF tau ELISA, ePHF coated; antibody at 18.5 ng/ml; anti-mouse-HRP.
The target is the same in assay [7]. The experiment in a line: ePHF tau ELISA, ePHF coated; antibody at 55.6 ng/ml; anti-mouse-HRP.
For assay [8] the target is unchanged. The experiment in a line: ePHF tau ELISA, ePHF coated; antibody at 166.7 ng/ml; anti-mouse-HRP.
For assay [9] the target is unchanged. Nature of the assay: ePHF tau ELISA, ePHF coated; antibody at 500.0 ng/ml; anti-mouse-HRP.
The target is the same in assay [10]. The experiment in a line: ePHF tau ELISA, ePHF coated; antibody at 1000.0 ng/ml; anti-mouse-HRP.

T1 sequence (P10636 other isoform, or with tags, fused parts or gaps limits assumed): as above

B1: IPN002 antibody expressed from CAG-IPN002-HF.T2AL (TAU_ITR1) (antibody, V domains shown)
VH: EVHLVESGGALVKPGGSLKLSCAASGFSFSKYGMSWVRQTPDKRLEWVATISSSGSRTYYPDSVKGQFTISRDNAKNTLYLQMSSLKSEDTAMYYCSISWDGAMDYWGQGTSVTVSS
VL: DVLMTQTPLSLPVSLGDQASISCKSSQSIVHSNGNTYLEWYLQKPGQSPKLLVYKVSNRFSGVPDRFSGSGSGTDFTLKISRVEAEDLGTYYCFQGSLVPWAFGGGTKLEIK
For the molecule B1, the binding result in assay [1] was “binds”.

B2: IPN002 antibody expressed from CAG-IPN002-LF2AH (TAU_ITR9) (antibody, V domains shown)
VH: EVHLVESGGALVKPGGSLKLSCAASGFSFSKYGMSWVRQTPDKRLEWVATISSSGSRTYYPDSVKGQFTISRDNAKNTLYLQMSSLKSEDTAMYYCSISWDGAMDYWGQGTSVTVSS
VL: DVLMTQTPLSLPVSLGDQASISCKSSQSIVHSNGNTYLEWYLQKPGQSPKLLVYKVSNRFSGVPDRFSGSGSGTDFTLKISRVEAEDLGTYYCFQGSLVPWAFGGGTKLEIK
Turning to B2, in assay [1], the binding result is reported as “binds”.

B3: IPN002 antibody expressed from CB6-IPN002-LT2AH (TAU_ITR87) (antibody, V domains shown)
VH: EVHLVESGGALVKPGGSLKLSCAASGFSFSKYGMSWVRQTPDKRLEWVATISSSGSRTYYPDSVKGQFTISRDNAKNTLYLQMSSLKSEDTAMYYCSISWDGAMDYWGQGTSVTVSS
VL: DVLMTQTPLSLPVSLGDQASISCKSSQSIVHSNGNTYLEWYLQKPGQSPKLLVYKVSNRFSGVPDRFSGSGSGTDFTLKISRVEAEDLGTYYCFQGSLVPWAFGGGTKLEIK
notes: Full antibody
As to B3, the binding result in assay [1] is “binds”.

B4: IPN002 antibody expressed from CAG-IPN002-LT2AH (TAU_ITR10) (antibody, V domains shown)
VH: EVHLVESGGALVKPGGSLKLSCAASGFSFSKYGMSWVRQTPDKRLEWVATISSSGSRTYYPDSVKGQFTISRDNAKNTLYLQMSSLKSEDTAMYYCSISWDGAMDYWGQGTSVTVSS
VL: DVLMTQTPLSLPVSLGDQASISCKSSQSIVHSNGNTYLEWYLQKPGQSPKLLVYKVSNRFSGVPDRFSGSGSGTDFTLKISRVEAEDLGTYYCFQGSLVPWAFGGGTKLEIK
notes: Full antibody
Consider B4, for which the binding result in assay [1] was “binds”.

B5: IPN002 antibody expressed from CB6-IPN002-LF2AH (TAU_ITR11) (antibody, V domains shown)
VH: EVHLVESGGALVKPGGSLKLSCAASGFSFSKYGMSWVRQTPDKRLEWVATISSSGSRTYYPDSVKGQFTISRDNAKNTLYLQMSSLKSEDTAMYYCSISWDGAMDYWGQGTSVTVSS
VL: DVLMTQTPLSLPVSLGDQASISCKSSQSIVHSNGNTYLEWYLQKPGQSPKLLVYKVSNRFSGVPDRFSGSGSGTDFTLKISRVEAEDLGTYYCFQGSLVPWAFGGGTKLEIK
For B5, the binding result in [1] was “binds”.

B6: IPN002 antibody expressed from CB6-IPN002-HF.T2AL (TAU_ITR4) (antibody, V domains shown)
VH: EVHLVESGGALVKPGGSLKLSCAASGFSFSKYGMSWVRQTPDKRLEWVATISSSGSRTYYPDSVKGQFTISRDNAKNTLYLQMSSLKSEDTAMYYCSISWDGAMDYWGQGTSVTVSS
VL: DVLMTQTPLSLPVSLGDQASISCKSSQSIVHSNGNTYLEWYLQKPGQSPKLLVYKVSNRFSGVPDRFSGSGSGTDFTLKISRVEAEDLGTYYCFQGSLVPWAFGGGTKLEIK
For the molecule B6, the binding result in assay [1] is given as “binds”.

B7: IPN002 antibody expressed from CB6-IPN002-HF.F2AL (TAU_ITR3) (antibody, V domains shown)
VH: EVHLVESGGALVKPGGSLKLSCAASGFSFSKYGMSWVRQTPDKRLEWVATISSSGSRTYYPDSVKGQFTISRDNAKNTLYLQMSSLKSEDTAMYYCSISWDGAMDYWGQGTSVTVSS
VL: DVLMTQTPLSLPVSLGDQASISCKSSQSIVHSNGNTYLEWYLQKPGQSPKLLVYKVSNRFSGVPDRFSGSGSGTDFTLKISRVEAEDLGTYYCFQGSLVPWAFGGGTKLEIK
As to B7, in [1], the binding result is “binds”.

B8: IPN002 Fab expressed from TAU_ITR123 (CBA, hGbin, HF.T2AL) (Fab, V domains shown)
VH: EVHLVESGGALVKPGGSLKLSCAASGFSFSKYGMSWVRQTPDKRLEWVATISSSGSRTYYPDSVKGQFTISRDNAKNTLYLQMSSLKSEDTAMYYCSISWDGAMDYWGQGTSVTVSS
VL: DVLMTQTPLSLPVSLGDQASISCKSSQSIVHSNGNTYLEWYLQKPGQSPKLLVYKVSNRFSGVPDRFSGSGSGTDFTLKISRVEAEDLGTYYCFQGSLVPWAFGGGTKLEIK
For the molecule B8, the binding result in assay [2] is listed as “binds”.

B9: IPN002 Fab_ext expressed from TAU_ITR124 (CBA, hGbin, HF.T2AL) (Fab, V domains shown)
VH: EVHLVESGGALVKPGGSLKLSCAASGFSFSKYGMSWVRQTPDKRLEWVATISSSGSRTYYPDSVKGQFTISRDNAKNTLYLQMSSLKSEDTAMYYCSISWDGAMDYWGQGTSVTVSS
VL: DVLMTQTPLSLPVSLGDQASISCKSSQSIVHSNGNTYLEWYLQKPGQSPKLLVYKVSNRFSGVPDRFSGSGSGTDFTLKISRVEAEDLGTYYCFQGSLVPWAFGGGTKLEIK
Consider B9, for which, in assay [2], the binding result is given as “binds”.

B10: IPN002 antibody expressed from CAG-IPN002-HF.F2AL (TAU_ITR2) (antibody, V domains shown)
VH: EVHLVESGGALVKPGGSLKLSCAASGFSFSKYGMSWVRQTPDKRLEWVATISSSGSRTYYPDSVKGQFTISRDNAKNTLYLQMSSLKSEDTAMYYCSISWDGAMDYWGQGTSVTVSS
VL: DVLMTQTPLSLPVSLGDQASISCKSSQSIVHSNGNTYLEWYLQKPGQSPKLLVYKVSNRFSGVPDRFSGSGSGTDFTLKISRVEAEDLGTYYCFQGSLVPWAFGGGTKLEIK
As to B10, the binding result in assay [1] is recorded as “binds”.

B11: anti-tau antibody MC1 expressed from viral genome construct MC1HF.F2AL (TAU_ITR72; SEQ ID NO: 2061) (antibody, V domains shown)
VH: QVQLQQSGAELMKPGASVKISCKATGYTFSNYWIEWVKQRPGHGLEWIGEILPGSDSIKYNENFKGKATFTADTSSNTAYMQLSSLTSEDSAVYYCARRGNYPDYWGQGTTLTVSS
VL: DVVMTQTPLSLPVSLGDQASISCRSSQSLVHSNGNTYLHWYLQKPGQSPKLLIYKVSNRFSGVPDRFSGSGSGTDFTLKISRVEAEDLGVYFCSQSTHVPLTFGAGTKLELKR
For B11, the OD450 stood at 0.1 OD450 in assay [3]; 0.1 OD450 in assay [4]; 0.2 OD450 in assay [5]; 0.3 OD450 in assay [6]; 0.5 OD450 in assay [7]; 0.7 OD450 in assay [8]. In addition, the OD450 in assay [9] turned out to be 1 OD450; in [10], 1.1 OD450.

B12: anti-tau antibody MC1 expressed from viral genome construct MC1LF.F2AH (TAU_ITR78; SEQ ID NO: 2067) (antibody, V domains shown)
VH: QVQLQQSGAELMKPGASVKISCKATGYTFSNYWIEWVKQRPGHGLEWIGEILPGSDSIKYNENFKGKATFTADTSSNTAYMQLSSLTSEDSAVYYCARRGNYPDYWGQGTTLTVSS
VL: DVVMTQTPLSLPVSLGDQASISCRSSQSLVHSNGNTYLHWYLQKPGQSPKLLIYKVSNRFSGVPDRFSGSGSGTDFTLKISRVEAEDLGVYFCSQSTHVPLTFGAGTKLELKR
As to B12, the OD450 in assay [3] is 0.1 OD450; in assay [4], 0.1 OD450; in [5], 0.1 OD450; in assay [6] it was 0.2 OD450; in [7], 0.4 OD450; in assay [8] it was 0.7 OD450. Further, the OD450 in assay [9] stood at 1 OD450; in assay [10], 1.1 OD450.

B13: anti-tau antibody MC1 expressed from viral genome construct MC1LP2AH (TAU_ITR82; SEQ ID NO: 2071) (antibody, V domains shown)
VH: QVQLQQSGAELMKPGASVKISCKATGYTFSNYWIEWVKQRPGHGLEWIGEILPGSDSIKYNENFKGKATFTADTSSNTAYMQLSSLTSEDSAVYYCARRGNYPDYWGQGTTLTVSS
VL: DVVMTQTPLSLPVSLGDQASISCRSSQSLVHSNGNTYLHWYLQKPGQSPKLLIYKVSNRFSGVPDRFSGSGSGTDFTLKISRVEAEDLGVYFCSQSTHVPLTFGAGTKLELKR
On to B13, for which the OD450 in assay [3] came out at 0.1 OD450; in assay [4], 0.1 OD450; in assay [5] it was 0.1 OD450; in [6], 0.1 OD450; in [7], 0.2 OD450; in assay [8], 0.4 OD450. Further, the OD450 in [9] is 0.7 OD450; in assay [10], 0.8 OD450.

B14: anti-tau antibody MC1 expressed from viral genome construct MC1HF.P2AL (TAU_ITR73; SEQ ID NO: 2062) (antibody, V domains shown)
VH: QVQLQQSGAELMKPGASVKISCKATGYTFSNYWIEWVKQRPGHGLEWIGEILPGSDSIKYNENFKGKATFTADTSSNTAYMQLSSLTSEDSAVYYCARRGNYPDYWGQGTTLTVSS
VL: DVVMTQTPLSLPVSLGDQASISCRSSQSLVHSNGNTYLHWYLQKPGQSPKLLIYKVSNRFSGVPDRFSGSGSGTDFTLKISRVEAEDLGVYFCSQSTHVPLTFGAGTKLELKR
In the case of B14, the OD450 in assay [3] came out at 0.1 OD450; in assay [4] it was 0.1 OD450; in assay [5], 0.1 OD450; in assay [6] it was 0.2 OD450; in assay [7], 0.4 OD450; in assay [8] it was 0.6 OD450. In addition, the OD450 in [9] and in assay [10] was 0.9 OD450 each time.

B15: anti-tau antibody MC1 expressed from viral genome construct MC1LF.P2AH (TAU_ITR83; SEQ ID NO: 2072) (antibody, V domains shown)
VH: QVQLQQSGAELMKPGASVKISCKATGYTFSNYWIEWVKQRPGHGLEWIGEILPGSDSIKYNENFKGKATFTADTSSNTAYMQLSSLTSEDSAVYYCARRGNYPDYWGQGTTLTVSS
VL: DVVMTQTPLSLPVSLGDQASISCRSSQSLVHSNGNTYLHWYLQKPGQSPKLLIYKVSNRFSGVPDRFSGSGSGTDFTLKISRVEAEDLGVYFCSQSTHVPLTFGAGTKLELKR
For B15, the OD450 in assay [3] came to 0.1 OD450; in assay [4], 0.1 OD450; in assay [5], 0.1 OD450; in assay [6], 0.1 OD450; in assay [7], 0.1 OD450; in assay [8], 0.2 OD450. Also, the values for the OD450 in assay [9] and in assay [10] were 0.4 OD450 and 0.6 OD450, respectively.
